Reference: US12194082B2, “Compositions and methods for treatment of homocystinuria” (THE REGENTS OF THE UNIVERSITY OF COLORADO, priority 2016, dated 2025)
“And” between values parts separate entries of the source, which are not always exact repeats. Equal values may be shown once. Read-outs that look alike come from different tables or passages of the source.

Assays:
KO mice = experiment: Liver light and electron microscopy of treated KO mice; type: in vivo, mouse; details: 7.5 mg/kg SC 3x/week from 2 days of age, day 17-19
Description: The PBS-injected or PEGylated htCBS conjugate, such as 20NHS PEG-htCBS C15S, treated KO mice were sacrificed on day 17-19 and liver samples were processed for histological analysis by optical microscopy. The histological assessment was carried out in a blinded fashion. Livers were removed and were fixed for 24 hours with 4% paraformaldehyde in PBS (pH 7.4). Tissue blocks for histology were trimmed, dehydrated with an ethanol series followed by acetone, acetone-xylene mixture, and xylene, then embedded in paraffin. In parallel, small tissue blocks (around 4 mm×2 mm) fixed with paraformaldehyde were rapidly frozen in petrol ether cooled with dry ice, and stored at −50° C. for detection of apolar lipids. Paraffin sections 4 μm thick were deparaffinized in xylene and after isopropyl alcohol step rehydrated with ethanol (96%, 70%, 60%). Tissue sections were stained with hematoxylin and eosin (H&E) to evaluate histopathological changes. Masson trichrome staining was performed for detection of fibrosis. Steatosis was verified using Oil Red O staining for detection of apolar lipids in fixed-frozen sections that was 10 μm thick and cut with a Leica Cryomicrotome (CM 1850). The sections were viewed and photographed with a Nikon light microscope (E800) equipped with Olympus digital camera (DP70). […]

Hcy, Cth, Cys = experiment: Plasma metabolites in KO mice of the DEXA study; type: in vivo
Description: In 20NHS PEG-htCBS C15S-treated KO mice, the plasma levels of Hcy, Cth, and Cys were measured biweekly over the course of the study and are shown in FIG. 16F. […] The level of Cys (top line) normalized with the treatment from less than 100 μM at day […] to about 200 μM at day 45 and sustained over the course of the study. The level of Cth (bottom line) oscillated around 50 μM throughout the duration of the study.
Plasma metabolites were determined using the same mice/groups as described above. The end-point levels of metabolites Hcy, Cth, Cys, and Met were determined 24 hours after the last injection to the 20NHS PEG-htCBS C15S-treated KO mice (right bar for each metabolite) and compared with untreated healthy +/− (left bar) and affected −/− KO mice (middle bar), as shown in FIG. 16G. Table 20 provides the P-values used to determine significance for the differences in metabolite levels in the treated group compared to the two control groups.

[1] = tested on: I278T −/− homozygous mice; experiment: Facial alopecia in I278T mice; type: in vivo, mouse; details: 3 times per week, start W24-W28, up to about 1 year
Description: 3 W old mice not showing any signs of facial alopecia were split into 2 groups. The first group (n=3 males) was injected with 7.5 mg/kg three times per week with 200MA0B PEG-htCBS C15S for a period of 6 weeks. Physical look was recorded before the experiment and monitored weekly, then bi-weekly after the 6 W injection regimen. Metabolite levels were checked before the experiment and 24 hours after the last injection, i.e. after the 6 W injection regimen.
The second group (n=3; 2 males, 1 female) was continuously injected with 7.5 mg/kg of 200MA0B PEG-htCBS C15S administered subcutaneously from 3 W of age until 41 weeks of age. Weight was initially monitored weekly. Physical look was recorded before the experiment and was monitored weekly or bi-weekly after the initial 6 W injection regimen. Metabolite levels were checked before the experiment and 24 hours after the last injection of initial 6 W injection regiment and then followed weekly or bi-weekly.
The I278T mice, which were at least 120D (W17) old and had visible, fully developed facial alopecia, were split into 2 groups. […] Metabolite levels were determined prior to the treatment initiation and measured during the study 24 hours after the injection, and weight and physical look were initially monitored weekly, and later bi-weekly.

[2] = cynomolgus monkey, in vivo
Description: (§1) The pharmacokinetic (PK) parameters were calculated using a non-compartmental curve stripping model which resolves a curve into a series of exponential terms corresponding to the absorption, distribution and elimination phases occurring during the time course of the enzyme in the blood. The curve stripping approach assumes that the disposition phases of the drug follow apparent first-order kinetics, which is evidenced by the linearity in the terminal portion of a semi-log plot. These calculations were made using a modeling program called PK Solutions 2.0 (Summit Solutions, Montrose, CO) using the mean plasma enzyme activity for each route of administration. The bioavailability was calculated by dividing the area under the curve (AUC) for the SC or IP route by the AUC observed after IV administration.
(§2) For the single dose PK study, three experimental groups of 4 (n=2M+2F) monkeys each were used to conduct the experiments. The first group received 2 mg/kg 20NHS PEG-htCBS C15S via IV injection. Blood was collected at 0, 0.083, 0.16, 0.25, 0.5, 1, 2, 4, 8, 24, 72, 120, and 192 hours post IV injection. The second and third groups received either 2 mg/kg or 6 mg/kg 20NHS PEG-htCBS C15S via SC injection. Blood was collected at 0, 1, 2, 4, 8, 24, 48, 72, 96, 120, 192, 240, and 336 hours post SC injection.

[3] = Pharmacokinetics of 20NHS PEG-htCBS C15S in monkeys
Description: as §1, §2

[4] = CBS enzyme activity assay, specific activity of pure enzyme; type: biochemical; details: lots used in osmotic pumps
Description: CBS activity was determined by a radioisotope assay with C^14-labeled serine as a substrate. Ten μl (total 490 ng) of pure htCBS in dilution buffer (0.1 M Tris-HCl pH=8.6, 1 mM DTT, 10 μM PLP, 0.5 mg/ml BSA) or 10 μl of plasma were added to 85 μl of reaction mixture containing 0.1 M Tris-HCl pH=8.6, 10 mM L-serine, 0.5 mM PLP, 0.5 mg/ml BSA and 0.3 μCi (for pure enzyme) or 0.45 μCi (for plasma) of L-[C^14(U)]-Serine. Samples were incubated for 5 min at 37° C. and reaction was initiated by addition of 5 μl of 0.2 M Hcy (10 mM final concentration). Following 30 min of incubation at 37° C., a 20 μl aliquot of the assay mixture was applied onto a grade 3 CHR Whatman (NJ, USA) paper. Assay initiation and sampling of the resulting mixture were staggered so that each reaction time was 30 minutes. Descending paper chromatography was used to isolate the radioactive product (Cth) from a labeled substrate (Ser). The C^14-cystathionine formed in the reaction was separated from C^14-serine by an overnight descending paper chromatography in 2-propanol/formic acid/H2O (75:5.7:18.9 v/v). Radioactivity in the area of the marker cystathionine (detected by staining the marker lane with ninhydrin) was determined by cutting the chromatogram into strips that were submerged in 5 ml of Opti-fluor scintillation cocktail (PerkinElmer, MA, USA) and counted in a Beckman LS-3801 scintillation counter. An enzyme-free sample was used as a blank to monitor the background radioactivity that was then subtracted from each sample. For pure enzyme, specific activity values are expressed as enzyme units (the amount of enzyme that produces 1 μmol of cystathionine/hour) per mg of CBS, and for plasma samples as units per μl plasma.

20NHS PEG-htCBS C15S: htCBS C15S PEGylated with ME-200GS PEG (20 kDa linear NHS ester-activated PEG)
liver parenchyma, light microscopy (KO mice): regular liver architecture and minimal anizokaryosis | plasma Hcy (Hcy, Cth, Cys; during treatment, from about 180 μM): about 90 μM | plasma Cys (Hcy, Cth, Cys; during treatment, from less than 100 μM): about 200 μM | plasma Cth (Hcy, Cth, Cys; throughout the study): around 50 μM | animals responding (reversal of fully developed facial alopecia) [1]: 4 out of 4 | AUC0-t/dose ([2]; iv, 2 mg/kg): 2971 ± 78 mU-h/μl/(mg/kg) | AUC/dose ([2]; sc): 2744 (mU-h/mL)/(mg/kg) | cmax/dose ([2]; sc): 20 (mU/μL)/(mg/kg) | elimination half-life (T1/2) ([2]; sc): 73 h | AUC0-t/dose ([2]; sc, 2 mg/kg): 2761 ± 160 mU-h/μl/(mg/kg) | cmax/dose ([2]; sc, 2 mg/kg): 20.4 ± 1.0 mU/μl/(mg/kg) | t1/2-A ([2]; sc, 2 mg/kg): 7.9 ± 1.0 h | t1/2-E ([2]; sc, 2 mg/kg): 72.9 ± 1.1 h | AUC0-t/dose ([2]; sc, 6 mg/kg): 2727 ± 119 mU-h/μl/(mg/kg) | cmax/dose ([2]; sc, 6 mg/kg): 19.2 ± 1.3 mU/μl/(mg/kg) | t1/2-A ([2]; sc, 6 mg/kg): 9.7 ± 1.0 h | t1/2-E ([2]; sc, 6 mg/kg): 72.8 ± 1.7 h | AUC(0-t) (obs area) ([3]; 2 mg/kg IV): 5942 ± 156 mU-h/μl | Bioavailability ([3]; 2 mg/kg IV): 100% | CL (obs area) ([3]; 2 mg/kg IV): 22.4 ± 1.27 mL/day/kg | MRT (area) ([3]; 2 mg/kg IV): 89.9 ± 2.4 h | cp0 ([3]; 2 mg/kg IV): 96.5 ± 2.8 mU/μl | AUC(0-t) (obs area) ([3]; 2 mg/kg SC): 5263 ± 299 mU-h/μl | Bioavailability ([3]; 2 mg/kg SC): 80.8 ± 4.7% | MRT (area) ([3]; 2 mg/kg SC): 116.3 ± 2.4 h | cmax ([3]; 2 mg/kg SC): 40.8 mU/μl and 40.8 ± 2.0 mU/μl | tmax (obs) ([3]; 2 mg/kg SC): 26.2 ± 2.6 h | AUC(0-t) (obs area) ([3]; 6 mg/kg SC): 15743 ± 629 mU-h/μl | Bioavailability ([3]; 6 mg/kg SC): 79.9 ± 3.5% | MRT (area) ([3]; 6 mg/kg SC): 116.2 ± 5.0 h | cmax ([3]; 6 mg/kg SC): 114.9 mU/μl and 114.9 ± 7.5 mU/μl | tmax (obs) ([3]; 6 mg/kg SC): 32.4 ± 2.4 h | CBS activity after repeated administrations ([3]; 6 SC doses every 72 hours): no attenuation of CBS activity | tmax ([3]; Monkey/both sexes, SC): 29 h | bioavailability (F %) after SC administration ([3]; monkeys, both sexes, across SC doses, listed as OT-58): 81% | specific activity of administered enzyme [4]: 673.9 ± 13.2 U/mg | specific activity of administered enzyme ([4]; listed as ME-200GS PEGylated htCBS C15S): 623.2 ± 16.4 U/mg
